Results reported in the supplement of paper PMC9112550, “Optimization of the antimicrobial peptide Bac7 by deep mutational scanning” (BMC Biology, 2022).

Test system: Escherichia coli TOP10
Assay: shrunken log2 fold change of peptide-encoding DNA abundance (4.5 h post-induction vs induction); higher = less antimicrobial activity (less host growth inhibition)
Details: time post-induction: 4.5 h; library: site-saturation at positions 5, 18, 19, 20
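Further: peptides expressed intracellularly from a pBAD plasmid library in pooled LB shake-flask culture, induced with 0.3% L-arabinose, DNA abundance read by NGS, three biological replicates, DESeq2 with apeglm shrinkage.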

Sequence	shrunken log2 fold change
RRIRQRPPRLPRPRPRPLDFPRP	-0.0491
RRIRQRPPRLPRPRPRPLFPPRP	0.0501
RRIRQRPPRLPRPRPRPLIEPRP	-0.042
RRIRQRPPRLPRPRPRPLIPPRP	0.114
RRIRQRPPRLPRPRPRPLIYPRP	-0.457
RRIRQRPPRLPRPRPRPLKIPRP	-0.141
RRIRQRPPRLPRPRPRPLKMPRP	-0.269
RRIRQRPPRLPRPRPRPLKTPRP	0.0342
RRIRQRPPRLPRPRPRPLLEPRP	0.105
RRIRQRPPRLPRPRPRPLLKPRP	-0.321
RRIRQRPPRLPRPRPRPLMCPRP	-0.0972
RRIRQRPPRLPRPRPRPLMDPRP	0.0125
RRIRQRPPRLPRPRPRPLMEPRP	-0.17
RRIRQRPPRLPRPRPRPLMVPRP	-0.13
RRIRQRPPRLPRPRPRPLNFPRP	-0.233
RRIRQRPPRLPRPRPRPLNGPRP	-0.128
RRIRQRPPRLPRPRPRPLNLPRP	-0.249
RRIRQRPPRLPRPRPRPLQGPRP	0.0512
RRIRQRPPRLPRPRPRPLRRPRP	2.24
RRIRQRPPRLPRPRPRPLTAPRP	0.0683
RRIRQRPPRLPRPRPRPLVMPRP	-0.107
RRIRQRPPRLPRPRPRPLVNPRP	-0.0122
RRIRQRPPRLPRPRPRPLVRPRP	0.0989
RRIRQRPPRLPRPRPRPLWMPRP	-0.165
RRIRQRPPRLPRPRPRPLWSPRP	-0.147

Sequence	shrunken log2 fold change
RRIRQRPPRLPRPRPRPLWTPRP	-0.042
RRIRQRPPRLPRPRPRPLYAPRP	-0.399
RRIRQRPPRLPRPRPRPLYHPRP	-0.283
RRIRQRPPRLPRPRPRPLYWPRP	-0.11
RRIRQRPPRLPRPRPRPMCEPRP	-0.00149
RRIRQRPPRLPRPRPRPMDKPRP	0.0321
RRIRQRPPRLPRPRPRPMICPRP	0.013
RRIRQRPPRLPRPRPRPMILPRP	-0.109
RRIRQRPPRLPRPRPRPMKAPRP	0.181
RRIRQRPPRLPRPRPRPMKLPRP	0.00355
RRIRQRPPRLPRPRPRPMKSPRP	0.0232
RRIRQRPPRLPRPRPRPMLEPRP	0.0533
RRIRQRPPRLPRPRPRPMMSPRP	-0.0325
RRIRQRPPRLPRPRPRPMPGPRP	0.0214
RRIRQRPPRLPRPRPRPMQAPRP	0.116
RRIRQRPPRLPRPRPRPMQWPRP	0.0039
RRIRQRPPRLPRPRPRPMRNPRP	-0.0579
RRIRQRPPRLPRPRPRPMTEPRP	-0.0192
RRIRQRPPRLPRPRPRPMTGPRP	0.0323
RRIRQRPPRLPRPRPRPMVLPRP	0.0309
RRIRQRPPRLPRPRPRPMWMPRP	0.0583
RRIRQRPPRLPRPRPRPMYAPRP	0.151
RRIRQRPPRLPRPRPRPMYYPRP	0.0048
RRIRQRPPRLPRPRPRPNAIPRP	-0.393
RRIRQRPPRLPRPRPRPNDAPRP	-0.0276

Sequence	shrunken log2 fold change
RRIRQRPPRLPRPRPRPNEYPRP	-1.18
RRIRQRPPRLPRPRPRPNFKPRP	-0.235
RRIRQRPPRLPRPRPRPNFVPRP	-0.0869
RRIRQRPPRLPRPRPRPNGMPRP	-0.0839
RRIRQRPPRLPRPRPRPNHSPRP	-0.762
RRIRQRPPRLPRPRPRPNIDPRP	-0.516
RRIRQRPPRLPRPRPRPNLLPRP	-0.0134
RRIRQRPPRLPRPRPRPNLPPRP	0.0275
RRIRQRPPRLPRPRPRPNPTPRP	0.00513
RRIRQRPPRLPRPRPRPNQHPRP	0.0696
RRIRQRPPRLPRPRPRPNRFPRP	-0.00894
RRIRQRPPRLPRPRPRPNRQPRP	0.0872
RRIRQRPPRLPRPRPRPNRRPRP	0.103
RRIRQRPPRLPRPRPRPNSRPRP	-0.0312
RRIRQRPPRLPRPRPRPNTWPRP	-0.191
RRIRQRPPRLPRPRPRPNTYPRP	-1.07
RRIRQRPPRLPRPRPRPNVNPRP	-0.543
RRIRQRPPRLPRPRPRPPAGPRP	0.866
RRIRQRPPRLPRPRPRPPCNPRP	-0.115
RRIRQRPPRLPRPRPRPPDMPRP	-0.14
RRIRQRPPRLPRPRPRPPDWPRP	0.34
RRIRQRPPRLPRPRPRPPGFPRP	0.0259
RRIRQRPPRLPRPRPRPPGQPRP	0.136
RRIRQRPPRLPRPRPRPPIQPRP	-0.164
RRIRQRPPRLPRPRPRPPIWPRP	0.113

Sequence	shrunken log2 fold change
RRIRQRPPRLPRPRPRPPKAPRP	-0.058
RRIRQRPPRLPRPRPRPPKGPRP	0.021
RRIRQRPPRLPRPRPRPPKSPRP	0.18
RRIRQRPPRLPRPRPRPPKWPRP	0.136
RRIRQRPPRLPRPRPRPPMIPRP	0.0721
RRIRQRPPRLPRPRPRPPNIPRP	-0.3
RRIRQRPPRLPRPRPRPPPGPRP	0.751
RRIRQRPPRLPRPRPRPPQAPRP	0.718
RRIRQRPPRLPRPRPRPPREPRP	0.655
RRIRQRPPRLPRPRPRPPSEPRP	-0.0213
RRIRQRPPRLPRPRPRPPTSPRP	-0.00728
RRIRQRPPRLPRPRPRPPVAPRP	0.121
RRIRQRPPRLPRPRPRPQAGPRP	-0.158
RRIRQRPPRLPRPRPRPQDNPRP	-0.304
RRIRQRPPRLPRPRPRPQDRPRP	-0.254
RRIRQRPPRLPRPRPRPQEEPRP	-0.0176
RRIRQRPPRLPRPRPRPQELPRP	0.157
RRIRQRPPRLPRPRPRPQEYPRP	0.0742
RRIRQRPPRLPRPRPRPQGYPRP	-0.19
RRIRQRPPRLPRPRPRPQHGPRP	-0.000236
RRIRQRPPRLPRPRPRPQHPPRP	-0.131
RRIRQRPPRLPRPRPRPQHYPRP	-0.447
RRIRQRPPRLPRPRPRPQIGPRP	-0.0384
RRIRQRPPRLPRPRPRPQKKPRP	-0.214
RRIRQRPPRLPRPRPRPQKMPRP	-0.00813

Sequence	shrunken log2 fold change
RRIRQRPPRLPRPRPRPQLQPRP	0.112
RRIRQRPPRLPRPRPRPQMAPRP	-0.065
RRIRQRPPRLPRPRPRPQMDPRP	-0.0516
RRIRQRPPRLPRPRPRPQNEPRP	0.121
RRIRQRPPRLPRPRPRPQNSPRP	-0.0328
RRIRQRPPRLPRPRPRPQNWPRP	0.0213
RRIRQRPPRLPRPRPRPQQYPRP	-0.0402
RRIRQRPPRLPRPRPRPQREPRP	0.00728
RRIRQRPPRLPRPRPRPQRHPRP	0.0218
RRIRQRPPRLPRPRPRPQRIPRP	-0.226
RRIRQRPPRLPRPRPRPQVDPRP	-0.0137
RRIRQRPPRLPRPRPRPQYQPRP	-1.46
RRIRQRPPRLPRPRPRPRFQPRP	0.202
RRIRQRPPRLPRPRPRPRGKPRP	0.00142
RRIRQRPPRLPRPRPRPRIRPRP	0.024
RRIRQRPPRLPRPRPRPRLQPRP	0.501
RRIRQRPPRLPRPRPRPRMIPRP	-0.227
RRIRQRPPRLPRPRPRPRMRPRP	0.583
RRIRQRPPRLPRPRPRPRMVPRP	0.166
RRIRQRPPRLPRPRPRPRPFPRP	0.149
RRIRQRPPRLPRPRPRPRPNPRP	0.183
RRIRQRPPRLPRPRPRPRQSPRP	0.0272
RRIRQRPPRLPRPRPRPRRDPRP	0.308
RRIRQRPPRLPRPRPRPRRQPRP	0.197
RRIRQRPPRLPRPRPRPRSRPRP	0.0402

Sequence	shrunken log2 fold change
RRIRQRPPRLPRPRPRPRTAPRP	0.0467
RRIRQRPPRLPRPRPRPRVLPRP	-0.0985
RRIRQRPPRLPRPRPRPRWCPRP	-0.0737
RRIRQRPPRLPRPRPRPRWRPRP	0.557
RRIRQRPPRLPRPRPRPRYEPRP	-0.349
RRIRQRPPRLPRPRPRPRYTPRP	-0.126
RRIRQRPPRLPRPRPRPSCKPRP	-0.259
RRIRQRPPRLPRPRPRPSCVPRP	-0.478
RRIRQRPPRLPRPRPRPSDDPRP	-0.0143
RRIRQRPPRLPRPRPRPSDMPRP	0.0447
RRIRQRPPRLPRPRPRPSFAPRP	0.0485
RRIRQRPPRLPRPRPRPSHVPRP	-0.367
RRIRQRPPRLPRPRPRPSIHPRP	-0.451
RRIRQRPPRLPRPRPRPSIRPRP	-0.523
RRIRQRPPRLPRPRPRPSKFPRP	-0.246
RRIRQRPPRLPRPRPRPSKHPRP	-0.641
RRIRQRPPRLPRPRPRPSKTPRP	-0.0854
RRIRQRPPRLPRPRPRPSLDPRP	-0.222
RRIRQRPPRLPRPRPRPSMCPRP	-0.194
RRIRQRPPRLPRPRPRPSMNPRP	-0.568
RRIRQRPPRLPRPRPRPSPEPRP	-0.0086
RRIRQRPPRLPRPRPRPSPHPRP	-0.511
RRIRQRPPRLPRPRPRPSSYPRP	-0.416
RRIRQRPPRLPRPRPRPSTKPRP	0.0644
RRIRQRPPRLPRPRPRPSTVPRP	-0.534
